Assay: yeast display, Sf9 membrane polyspecificity reagent, FACS + sequencing; frameworks hold sequencing errors
How it was run: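 Nanobodies from a synthetic yeast display library (Saccharomyces cerevisiae BJ5465), induced 36–48 hours with galactose, were stained 1 hour at 4 °C with 10% biotinylated, detergent-solubilized Sf9 membrane reagent, enriched on streptavidin microbeads, then FACS-sorted. Anti-HA (expression) and streptavidin (reagent binding) fluorescence set low and high (top ~1%) gates. Polyreactivity labels come from the gate of origin. Genes were colony-PCR amplified, MiSeq 2 × 250 sequenced and filtered by CDR length.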
In the case of “QVQLVESGGGLVQAGGSLRLSCADSGRIFVHNAMGCYRQAPGKERELVAAISWRATRTYYADSVKGRFTISRDNAKNTVYLQMNSLKPEDTAVYYWAAVTPAYSTSSSSYDYWGQGTQVTVSS”, the “polyreactivity (PSR sort gate)” value is reported as “high polyreactivity”. With “QVQLVESGGGLVQAGGSLRLSCAASGFHFGSYAMGWNRQAPGKERELVASISSAGRTYYADSVKGRFTISRDNAKNTVYSQMNSLKPEDTAVYYCAAESGYPVYTYVSSGDYWGQGTQVTVSS” the “polyreactivity (PSR sort gate)” value was “low polyreactivity”. With “QVQLVESGGGLVQAGGSLRLSCAASGFIFVYYAMGWYRQAPGKERELVAAISSDGSTNYADSVKGRFTISRDNAKNTVYLQMNSLKPEDTAVYYCNARYVASPSGKRRLIDVDYWGQGTQVTVSS” the “polyreactivity (PSR sort gate)” value was “low polyreactivity”. With “QVQLVESGGGLVQAGGSLRLSCAASGSTFNSYAMGWYRQAPGKERELVAAISWSGGSTYYADSVKGRFTISRDNAKNTVYLQMNSLKPEDTAVYYCNADYWWEYAYGVDYWGQGTQVTVSS” the “polyreactivity (PSR sort gate)” value was “low polyreactivity”. With “QVQLVESGGGLVQAGGSLRLSCAASGSIFSLYAMGWYRQAPGKERELVAAISSSGTSTYYADSVKGRFTISRDNAKNTVYLQMNSLKPEDTAVYYCNAYRRRATYNGDYWGQGTQVTVSS” the “polyreactivity (PSR sort gate)” value was “high polyreactivity”. With “QVQLVESGGGLVQAGGSLRLSCAASGSTFVDNDMGWYRQAPGKERELVAAIDQSGGSTSYADSVKGRFTISRDNAKNTVYLQMNSLKPEDTAVYYCATPSYTTAYVEGDYWGQGTQVTVSS” the “polyreactivity (PSR sort gate)” value was “low polyreactivity”. In the case of “QVQLVESGGGLVQAGGSLRLSCAASGSIFRYYTMGWYRQAPGKERELVARISSSGSTNYADSVKGRFTISRDNAKNTVYLQMNSLKPEDTAVYYCAARSFSWAGYYYWGQGTQVTVSS”, the “polyreactivity (PSR sort gate)” value is reported as “low polyreactivity”. In the case of “QVQLVESGGGLVQAGGSLRLSCAPSGRTFYWYTMGWYRQAPGKERELVAAISSSDGSTYYADSVKGRFTISRDNAKNTVYLQMNSLKPEDTAVYYCAADLYYYRYWYRFNYWGQGTQVTVSS”, the “polyreactivity (PSR sort gate)” value is reported as “high polyreactivity”. In the case of “QVQLVDSGGGLVQAGGSLRLSCAASGRIFGQYAMGWYRDATGKERELVAAISWRGGTTYYADSVKGRFTISRDNAKNTVYLQMNSLKPEDTAVFYCNADVWVYPYDYWGQGTQVTVSS”, the “polyreactivity (PSR sort gate)” value is reported as “low polyreactivity”. In the case of “QVQLVESGGGLVQAGGSLRLSCAASGRIITAYYAMGWSRQAPGKERELVASISSSGTSTYADSVKGRFTISRDNAKNTVYLQMNSLKPEDTAVYYCATRKLRTRRYDYGYWGQGTQVTVSS”, the “polyreactivity (PSR sort gate)” value is reported as “low polyreactivity”. With “QVQLVESGGGLVQAGGSLRLSCAASGGIFSFKAMGWYIQAPGKERELVAAITTRGGSTYYADSVKGRFTISRDNAKNTVYLQMNSLKPEDTAVYYCAAEGYEEFNWGQGTQVTVSS” the “polyreactivity (PSR sort gate)” value was “low polyreactivity”. In the case of “PVQLVESGGGLVQAGGSLRLSCAASGRTFYAFDMGWSRQAPGKERELVSRITSGGSTDYADSVKGRFTSSRDNAKNTVYLQMNSLKPEDTAVYYCAAETSYAVSTGDHFDYWGQGTQVTVSS”, the “polyreactivity (PSR sort gate)” value is reported as “high polyreactivity”. In the case of “QLQLVESGGGLVQAGGSLRLSCAASGRIFSPYAMGWYSQAPGTASELVARISWRGSRTYFADSVKRRFTISRDNAKNTVYLQMNSLKPEDTAVYYCNAVVYRKPLRRDYWGQGTQVTVSS”, the “polyreactivity (PSR sort gate)” value is reported as “high polyreactivity”. With “QVQLVESGGGLVQAGGSLRLSCAASGSIFSLYAMGWYRQAPGKASELVASITSSGGRTYYADSVKGRFTITRDTAKNTVYLQMNSLKPEDTAVYYCNNQPSWVGQRVHRFDYWGQGTQVTVSS” the “polyreactivity (PSR sort gate)” value was “low polyreactivity”. For “QVQLVESGGGLVQAGGSLRLSCAPSGFIFPLYTMGWYTQAPGKERELVAAIDFSGASTYYADSVKGRFTISRDNAKNTVYLLMNSLKPEDTAVYYCATYGSYRITVFYAYYYWGQGTQVTVSS”, the “polyreactivity (PSR sort gate)” value was “low polyreactivity”. With “QVQLVESGGGLVQAGGSLRLSCAASGYIFVGNAMGWYRQAPGKERELVATIRSSTGNTYADSVKGRFTISRDNAKNTVYLQMNSLKPEDTAVYYCATVYEWPGWGREYGYWGQGTQVTVSS” the “polyreactivity (PSR sort gate)” value was “low polyreactivity”. In the case of “QDQLVESGGRLVQAGGSLRLSCAASGRIFSSYALGWYRQAPGKERELVAAIRSSGDRTYYADSVKGRFTISRDNAKITVYLQMNILKPEETAVYFCASRTYLYFGRYDYWGQGTQVTVSS”, the “polyreactivity (PSR sort gate)” value is reported as “high polyreactivity”. For “QVQLVESGGGLVQAGGSLRLSCAASGRIFYFYAMGWYRQAPGKERELVAVISYGGDRTSYADSVKGRFTISRDNAKNTVYLQMNSLKPEDTAVYYCAARPFYRGYYYWGQGTQVTVSS”, the “polyreactivity (PSR sort gate)” value was “high polyreactivity”. For “QVQLVESGGGLVQAGGSLRLSCAASGFIFGIYAMGWYRQAPGKERELVAAISYRGGRTYYADSVKGRFTISRDNAKNTVYLQMNSLKPEDTAVYYCNTRGYRPGYNYWGQCTQVTVSS”, the “polyreactivity (PSR sort gate)” value was “high polyreactivity”. With “QVQLVESGGGLVQAGGRLRLSCAASGSIFQPYAMGWSRQAPGKERELVAAINGRGGSTHYADSVKGRFTISRDNAKNTVYLQMNSLKPEDTAVYYWNRPKWYDGDYWGQGTQVTVSS” the “polyreactivity (PSR sort gate)” value was “high polyreactivity”. In the case of “QVQLVESGGGLVQAGGSLRLSCAASGSNFHGNAMGWSRQAPGKERELVAAISQSGDSTYYADSVKGRFTISRDNAKNTVYLQMNSLKPEDTAVYYCAARSGYRGYYHFYYWGQGTQVTVSS”, the “polyreactivity (PSR sort gate)” value is reported as “high polyreactivity”. For “QVQLVESGGGLVQAGGSLRLSCAASGYIFRYNAMGWYRQAPGTEREFVASINWSGGRTYYADSVKGRFTLSRDNAKNTVYLQMNSLKPEDTAVYYCAAVYYVSLVYGYYVEGSYEYYYWGQGTQVTVSS”, the “polyreactivity (PSR sort gate)” value was “high polyreactivity”. In the case of “QVQLVESGGGLVQAGGSLRLSCAASGSIFYDYTMGWYRQAPGKERELVAAITSDGSTYYADSVKGRFTISRDNAKNTVYLQMKSLKPEDTAVYYCAVFSDVFLYYYGETYDYWGQGTQVTVSS”, the “polyreactivity (PSR sort gate)” value is reported as “high polyreactivity”. With “QVQLVESGGGLDQAGGSLRLICAASGSTFGGYVMGWYRQAPGKERELVAAISRSGASTYYADSVKGRFTISRDNAKNTVYLQMNSLKPEDTAVYYCAAYQARGMDYWGQGTQVTVSS” the “polyreactivity (PSR sort gate)” value was “high polyreactivity”. For “QVQLVESGGGLVQAGCSLRLSCASSGGIFSWYAMGRYRQAPGKEREFVAAISWRGGRTYYADSVKGRFTISRDNAKNTVYLQMNSLKPEDTAVYYCAVANRAGEDDYWGQGSQVTVSS”, the “polyreactivity (PSR sort gate)” value was “high polyreactivity”. For “QVEHVDSGRGLVQAGGSLRLSCAASGSIIRSYAMGWYRQAPGKERELVAAISWRGGRTYYADSLKGRFTISRDNAKNTVYLQMNSLKPEDTAVYFCAARKRAQQGTRDHDYWGQGTQLTVSS”, the “polyreactivity (PSR sort gate)” value was “high polyreactivity”. For “QVQLVESGGGLVQAGGSLRLSCAASGFTISRYNMGWYRQAPGKEREMVAAISGSGGSTYYADSVKGRFTISRDNAKNTVYLQMNSLKPEDTAVYYCNAVRNWYYTPWEMNYWGQGTQVTVSS”, the “polyreactivity (PSR sort gate)” value was “high polyreactivity”. In the case of “QVQLVESGGGLVQAGGSLRLSCAASGIIFDNYAMGWYRQAPGKERELVAAISPGGSTYYADSVKGRFTISRDNAKNTVYLQMNSLKPEDTAVYYCNARKYTWYSSRFIRFDYWGQGTQVTVSS”, the “polyreactivity (PSR sort gate)” value is reported as “high polyreactivity”. For “QVQLVESGGGLVQAGGSLRLTCAASGRIFVPYVMGWFRQAPGKERELVAAISSSGGSTYYADSVKGRFTISRDNAKNTVYLQMNSLKPEDTAVYYCAKPYYFHEEDHWGQGTQVTVSS”, the “polyreactivity (PSR sort gate)” value was “low polyreactivity”. With “QVQLVESGGGLVQAGGSLRLSCAASGFTFVNYARGWYRQAPGKERELVAAIRRSGSRTYYADSVKGRFTISRDNAKNTVYLQMHSLKPEDTAVYYCAAVWYRLYGYWGQGTQVTVSS” the “polyreactivity (PSR sort gate)” value was “low polyreactivity”.
